Experimental data as given in the DeepSol protein solubility set.

Test: soluble on expression in E. coli; label from the status in PepcDB or PDB records

Row | Sequence | soluble on expression in E. coli
1 | MSLKILFAVSECTPFVKSGGLADVAGALPKALARLGNEVAVMLPKYSQIPEPWKKRMKKQAECTVAVGWRQQYCGIEHMAENDVNYYFIDNEYYFNRDSLYGHYDDGERFAFFSRAVLEAAKVVNVQADIVHTHDWHTAMVNYLLKEEYRKHPFYERMKSVLTIHNLQFQGIFPPDVTHDLLGLEMDHFHYERLECNGFVNFMKAGIIAADHVTTVSPTYRNEIMTPYYGEQLEQVLQYREDDVTGILNGIDDTFYQPKSDPYIEAQYDSGDLACKLENKTKLQQRMGLPEKNDIPLISMVTRLTKQKGLDLVRRIMHELLEEQDIQLVVLGTGEREFEDYFRYAEFAFHEKCRAYIGFDEPLAHQIYAGSDMFLMPSKFEPCGLGQLIALQYGAIPIVRETGGLYDTVRAYQEEEGTGNGFTFSAFNAHDLKFTIERALSFYCQQDVWKSIVKTAMNADYSWGKSAKEYQRIFEQVTRSGRDVLEEGHHHHHH | soluble
2 | MSLKITIRDIAKQAEVSISTVSFVINGKGEKMAISPAVIKKVQDVAQKLQYKPSMIASSLRTGKTRSIGLIVEDISNQFFADLARVIEDEAKNINYRVFYCSTGDDNDRSEELVQSLLQANVEGFIITPTRNLEKTISQLLKLQKPVVLIDRYFANQKVSHVVMDNYEGSYSAVKFLISKGRKNIAVVNNKSGMIQMKLREKGYVEALKEEGIYNEKYTLLLDYHSSEKTRIEEIINFFNQNKEIDAVLFCANYMGLAGLQAFRTLNYKIPNDISVISFDDHDSFKLHTPTISVIAQPIEDIAVESIQLLMSQMTNFEDFKIEKVLKKGTLIIRESVEGHHHHHH | soluble
3 | MSLKITRIEAIPYAIPYSRPLKFASGEVSTAEHVLVRIHTDAGICGVADTPPRPYTYGETQDSIVSVVTKVFAPQLIGMDPMDRSKVQQLLGRTVNNPTAKGALDIALWDVIGISLGTPVHKLLGGFSDSMRVSHMLGFKAAAELLEEALRFRETYGIDTFKLKVGRRPLSLDVEACHVLREGLGADTEIYLDANRGWTANEAMEVLRRTEGLGLSMLEEPCDAAEAMGRRRLVQHSSIPIVGDESVPNLGDVSRELLSGGSNAICIKTARSGFTEAQQILGLCEGLGVDVTMGNQIDTQVGSLATVTFGAAFEASSRRAGELSNYLDMTDDLLAEPLEITDGAIRVRKAPGVGAAIDADKLQKYREGHHHHHH | soluble
4 | MSLKIYESYEDLPKLKLPYGNEVFISDSTIRDGSQMPGIVLSREHKIQIYEYLHEIGIEKLEAFVFNKRDRDAVDLMFDKGYEFPEITGWARSSRADIDKILEVDGIEETGILMSVSDTHIHSKMRLSGREEAEERYLDALQYAVDHGLKTRAHLEDMTRADNYGFVFPLVKKIMEIDPDCIIRVCDTVGYGMPFMNIDEPYGIPKIIQHLKKEIGVKNIETHIHDDYGFGSASSIAGFWHGANWTSVTFLGIGERAGNSEMEKILLFLADRVEGFDKYNLEPVTRFAEFMEKELGLRVPRNKAVVGKNIFAHESGIHAAGVLKNPFNYEPYPPELVGGTRLLLIGDSSGLEVIRYKVQETLNNLLDVETVVEKDDRRLLKIQKEIQKLYDKEERVSCISDEELLAYVEKYFLYQPISDPARTGRGKLKNRGKIQEPVEEKEGHHHHHH | not soluble
5 | MSLKKAIAYMRFSSPGQMSGDSLNRQRRLIAEWLKVNSDYYLDTITYEDLGLSAFKGKHAQSGAFSEFLDAIEHGYILPGTTLLVESLDRLSREKVGEAIERLKLILNHGIDVITLCDNTVYNIDSLNEGHHHHHH | not soluble
6 | MSLKKIEKIIEKEIHKNKLLQALMKKNQKTDKKTVFELVKQFNQKLNLTTILKTIRTKRSTYYYWLKAENKIKAKKEKYLLQQNRIKALCLHQQYFYGHRKITDLYQKTFNEFITKKKVYTIMKKNDINCRLRIKKNKYNYKNNLKTKLKVVDNLINQDFISIAPLQKLFTDITYFKIPQGFLYFSCIIDSFNNQIIASHTSKHQNKELVLNTIQKLPLLKEPCIIHSDQGTVYQSQKVQQTLTKKGFLISMSRKATPRDNAVIENFFGQMKTILQHQHPFLFQKSTKKLKKIINHFPKFWNNQWILAKLNYSSPSQYSQNLIEGHHHHHH | not soluble
7 | MSLKKILILFFSIILSLGMVSCSSSGDYKNVSTSKIKKALKSSDLLIKESKIFDAKDFNYFNDVEEDIIQGFVINSSEKLSLEDIIVIKTDEVDKIYKTLENYKKDMIQAPFGEGHGEKINSEIANNTIIEKAGRYVYLISAENATQIENKILNIIKEGHHHHHH | soluble
8 | MSLKKRRTIGFLVNDIDVSYSNLVYLMTKKAAEKYDCNLIVYEGRSFNNPSMADSQHQISYSFVDNTRLDGIIITSATIACFISDEEFVEFCKRYEGIPLVSLGIVVPHATSILVDNKPGMKSQVEHLIKDHGFKKIVYISGPPTNTDSVERLEAYCEALRENDIEVDDGLIFYGDFMAQSGYDIIKEIIKNGIEYDAVVCANDEMAFGAIKGIRDLKDAYNLDLTQKGVICGFDDSITSRLVKPSLTTVRQPIEEMCFYAVEAILKKIEGEKVEDVVKLPSVLVKRESCGEGHHHHHH | soluble
9 | MSLKLVTFDLDDTLWDTAPAIAGAEVTLRDWLAEHAPKLGAIPVEHLWEIRSRLVAEDPSFKHRISALRRRVLFHALEDAGYDPDEAQDLADRGFEVFLHGRHQVQIFPEVQPMLEILAKTFTLGVITNGNADVRRLGLADYFAFALCAEDLGIGKPDPAPFVEALRRAKVDASAAVHVGDHPKDDIAGAQQAGMRAIWYNPQGKAWDADRLPDAEIHNLSQLPEVLARWAEGHHHHHH | soluble
10 | MSLKNLQCELDWERRFDGMQQHLGQHLLSGCFYDLFGANTCGFHLGKEISTVDIVGFLDEKTIREAEKEANRLIFENLEVKSYAPSKKELKKVKTRRALPKTDEEIRIVEIVGLDLNACCGVHPRNTRDLQVIKIRRWEKHKNATRIEYVAGNRAVSEGHHHHHH | not soluble
11 | MSLKPTKIFAFGGLEEVGKNMYGIEYDDELIIVDCGIKFSSVELLGIDGIVPNFAYAKANQHKIKALVITHGHEDHIGGIPYLLREVSVPVIYAPLMATKLIEKKLHEHHNLNQYKIVSYNDKSEFSTKHFKIDFYRVCHSIPDAFGVCVQTPNGNIVESGDYRFDFNAGNEELDIHKVVEISRRGIDLFMTETTNAEIPGFSSSEKEIYDNIKNIIKNANGRVILSTFASNVTRISEVIEIAIQHGRKICLLGKSMDNNVSISRDVGYINLKDDDIVESRYVEQHPDNEIMIFCTGSQGEELAALNMLASGRHPWIQLKKTDSIIMSSNPIPGNYAAVERLLNELSKEEGISIYENSPTLKLHASGHATMQEIQLMLSLLRPKYLFPIHGEYKMFTSLKRIAKKCGFDPENVALHKNGQIVYLIDREGHHHHHH | soluble
12 | MSLKQADELRFNEDGLIPAIVQDAASKEVLTLAYMNKESYEKTLETKETWFYSRSRQALWHKGETSGNTQAVKGIRYDCDQDALLVLVEPSGPACHTGSYSCFTKEQTEEQAADRFGIMNELERVIAERQAEMPEGAYTTYLFREGVDKILKKVGEEASEVIIAAKNRDHEELKWEAADLLYHLLVLLREQSLPLDDVLDVLKKRHSEIEEEGHHHHHH | soluble
13 | MSLKQGLQLRLSQQLAMTPQLQQAIRLLQLSTLELQQELQQALESNPLLEQIDTHEEIDTRETQDSETLDTADALEQKEMPEELPLDASWDTIYTAGTPSGTSGDYIDDELPVYQGETTQTLQDYLMWQVELTPFSDTDRAIATSIVDAVDETGYLTVPLEDILESIGDEEIDIDEVEAVLKRIQRFDPVGVAAKDLRDCLLIQLSQFDKTTPWLEEARLIISDHLDLLANHDFRTLMRVTRLKEDVLKEAVNLIQSLDPRPGQSIQTGEPEYVIPDVLVRKHNGHWTVELNSDSIPRLQINQHYASMCNNARNDGDSQFIRSNLQDAKWLIKSLESRNDTLLRVSRCIVEQQQAFFEQGEEYMKPMVLADIAQAVEMHESTISRVTTQKYLHSPRGIFELKYFFSSHVNTEGGGEASSTAIRALVKKLIAAENPAKPLSDSKLTSLLSEQGIMVARRTVAKYRESLSIPPSNQRKQLVEGHHHHHH | soluble
14 | MSLKQLPKREELPENLTWDLTKIFSSDQEFDEKYLELSEELKQSEKHKGTLDQGASQFLNAIEFVLRVYRQTEVIYVYAHLKNDQDTGNTDYQALYARASSLFSKVSEAVSWFEPEILQLSDDQIWQYFKEEPKLEVYRHYIQQIVDNRAHVLSAEQESLLAGAGEIFDASSDTFAVLNNADLVFPTIEGENGEIVQLSHGVYGQLLESTDRRVREAAFKGLYSVYEQFRNTFASTLGTHIKGHNFKAKVRNYSSAREASLSNNHIPESVYDTLVDVVNKHLPLLHRYMELRKRLLEVEKLHMYDLYTPVLGEAPITFTYEEAKEKALEALKPMGEEYMAIVEKAFSERWIDVVENKGKRSGAYSSGSYDTNPYILLNWHDTLDQLFTLVHEMGHSVHSYFTRSNQPYVYGDYSIFLAEIASTTNENILTEYLLETEKDPRVRAYVLNHYLDGFKGTVFRQTQFAEFEHFMHTEDEKGVPLTSEYLSDSYGKLNAKYYGPAVEEDPEIKFEWSRIPHFYYNYYVFQYSTGFSAASALAKKILNQEPEALENYLAYLKAGNSDYPVEVMKKAGVDMTQAAYIEDAMSMFEQRLNELEELIDREGHHHHHH | soluble
15 | MSLKRIVVANDLVGVGKVALSASIPLMASCLLEQVLLPTCLLSSHTGGGQNPVKHTTSSILDVFLTDWDNKRIKFDGIFIGYFTTTRDGQKLLEWLSRKQLPLILDPIMADNGKLYQGFSQKHIEIMIKLTQKAELVLPNISEACLLTQTAYLAKNYDEEDIRQVARKLAKLGPKQVVISGISFEEGSIGFAYYQSDSDQLTFHFGKQFPYHFYGTGDIASAIITAGFYYQLPLTQILDLVVSFLEKVLQNTLTLKRDLILGVAYESHLNYLTKSFKKLLEEKNVISKISEGHHHHHH | soluble
16 | MSLKRSSICYRASKPLIASLVMSVWNAVHLSRRFAALPQAFYTPVHPQPLQNVRWGMWNSRLAQQFGLPEAPNDELLLSLSGQQLPADFSPVAMKYAGHQFGVYNPDLGDGRGLLLAEMATKQGEVFDIHLKGAGLTPYSRMGDGRAVLRSSLREYLCSEAMAGLGIATTRALALMSSETPVYREREERGALLVRLAHTHVRFGHFEHFFYTDQHANLKLLADKVIEWHFPDCVQTSKPYAAWFSQVVERTALMIAQWQAYGFNHGVMNTDNMSILGETFDYGPFAFLDDYDPNFICNHSDYQGRYAFDQQPRIGLWNLSALAHALSPLIDKDDLEAALGSYSERLNLHFSRLMRAKLGLATQQEGDGELFADFFALLANNHTDYTRFLRELSCLDRQGNEAVIDLVLDREAAKTWLTRYLERAARELGQEGRPISTRERCQAMRQVNPKYILRNYLAQQAIEFAERGDFEEMQRLATVLASPYAEHPEFERYAKLPPEWGKKLEISCSSEGGSHHHHHH | soluble
17 | MSLKRTAEEIKQEVKSLSQQALDAVKKHTHSPEGVKELLNFMSRFPERSFRNQLLIEEQFPGATACLGRAALKKEGIYIKKGEQGNKIFVRKTVKGFYEKGRGFVRETEATPEDKKRIKSGQIEVIKKPYYTIEKVFDITQTQLKPEDYPKIFPNRVFDFQLDAKGQSELQAGIQAVANNIGIQIRDMTESEEGHHHHHH | soluble
18 | MSLKSIAKAQNDFTIFKFGDSEIRVINKCGEPWFVAKDVCDALALTNSRKALTALDDDEKGVTLSYTLGGEQNLSIVSESGMYTLVLRCRDAVNKGSVPHKFRKWVTAEVLPSIRKHGEYVKGKKTTVEERTPLRDAVNMLVGKKGLRNDDAYNMVHQRFGIDSIDELSIEQIPLAVEYIHRVVLEGEFIGKQEKSTNELSAKEANSLVWLWDYANRSQALFRELYPALKQIQSNYSGRCYDYGHEFSYVIGMARDVLINHTRDVDINEPDGPTNLSAWMRLKNKELPPSPHHYEGHHHHHH | not soluble
